± gives the uncertainty stated by the source.
B1: Ras GTPase-activating protein 1, residues 281 to 341; numbered along this chain, P20936 (parent)
chain: RRRVRAILPYTKVPDTDEISFLKGDMFIVHNELEDGWMWVTNLRTDEQGLIVEDLVEEVGR

Variants of: B1
Assay: abundance fitness (aPCA) (normalised: wild type 0, dead -1); higher = more abundant; growth selection in yeast, the domain comes from the species named
Details: Homo sapiens

RRRVRAILPYTKVPDTDEISFAKGDMFIVHNELEDGWMWVTNLRTDEQGLIVEDLVEEVGR [L22A] and RRRVRAILPYTKVPDTDEISFCKGDMFIVHNELEDGWMWVTNLRTDEQGLIVEDLVEEVGR [L22C] are within error of each other in abundance fitness: -0.095 ± 0.042 for the first, -0.124 ± 0.031 for the second.

RRRVRAILPYTKVPDTDEISFEKGDMFIVHNELEDGWMWVTNLRTDEQGLIVEDLVEEVGR [L22E] and RRRVRAILPYTKVPDTDEISFDKGDMFIVHNELEDGWMWVTNLRTDEQGLIVEDLVEEVGR [L22D] are within error of each other in abundance fitness: 0.006 ± 0.083 for the first, -0.045 ± 0.045 for the second.

First: RRRVRAILPYTKVPDTDEISQLKGDMFIVHNELEDGWMWVTNLRTDEQGLIVEDLVEEVGR [F21Q]
Second: RRRVRAILPYTKVPDTDEISVLKGDMFIVHNELEDGWMWVTNLRTDEQGLIVEDLVEEVGR [F21V]
The abundance fitness of the first is lower: -0.74 ± 0.068 for the first, -0.478 ± 0.021 for the second.

Compared with RRRVRAILPYTKVPDTDEISKLKGDMFIVHNELEDGWMWVTNLRTDEQGLIVEDLVEEVGR [F21K], RRRVRAILPYTKVPDTDEISYLKGDMFIVHNELEDGWMWVTNLRTDEQGLIVEDLVEEVGR [F21Y] is higher in abundance fitness: -0.988 ± 0.081 for the first, -0.091 ± 0.021 for the second.

Going from RRRVRAILPYTKVPDTDEISCLKGDMFIVHNELEDGWMWVTNLRTDEQGLIVEDLVEEVGR [F21C] to RRRVRAILPYTKVPDTDEISSLKGDMFIVHNELEDGWMWVTNLRTDEQGLIVEDLVEEVGR [F21S], the abundance fitness falls from -0.101 ± 0.021 to -0.908 ± 0.028.

First: RRRVRAILPYTKVPDTDEISNLKGDMFIVHNELEDGWMWVTNLRTDEQGLIVEDLVEEVGR [F21N]
Second: RRRVRAILPYTKVPDTDEISILKGDMFIVHNELEDGWMWVTNLRTDEQGLIVEDLVEEVGR [F21I]
The abundance fitness of the first is lower: -0.83 ± 0.03 for the first, -0.568 ± 0.024 for the second.

Compared with RRRVRAILPYTKVPDTDEISHLKGDMFIVHNELEDGWMWVTNLRTDEQGLIVEDLVEEVGR [F21H], RRRVRAILPYTKVPDTDEISMLKGDMFIVHNELEDGWMWVTNLRTDEQGLIVEDLVEEVGR [F21M] is higher in abundance fitness: -0.84 ± 0.036 for the first, -0.538 ± 0.039 for the second.

RRRVRAILPYTKVPDTDEISPLKGDMFIVHNELEDGWMWVTNLRTDEQGLIVEDLVEEVGR [F21P] and RRRVRAILPYTKVPDTDEISDLKGDMFIVHNELEDGWMWVTNLRTDEQGLIVEDLVEEVGR [F21D] are within error of each other in abundance fitness: -0.939 ± 0.05 for the first, -0.862 ± 0.03 for the second.

RRRVRAILPYTKVPDTDEISWLKGDMFIVHNELEDGWMWVTNLRTDEQGLIVEDLVEEVGR [F21W] and RRRVRAILPYTKVPDTDEISELKGDMFIVHNELEDGWMWVTNLRTDEQGLIVEDLVEEVGR [F21E] are within error of each other in abundance fitness: -0.92 ± 0.068 for the first, -0.866 ± 0.063 for the second.

RRRVRAILPYTKVPDTDEISGLKGDMFIVHNELEDGWMWVTNLRTDEQGLIVEDLVEEVGR [F21G] and RRRVRAILPYTKVPDTDEISTLKGDMFIVHNELEDGWMWVTNLRTDEQGLIVEDLVEEVGR [F21T] are within error of each other in abundance fitness: -0.914 ± 0.029 for the first, -0.907 ± 0.038 for the second.

Compared with RRRVRAILPYTKVPDTDEISRLKGDMFIVHNELEDGWMWVTNLRTDEQGLIVEDLVEEVGR [F21R], RRRVRAILPYTKVPDTDENSFLKGDMFIVHNELEDGWMWVTNLRTDEQGLIVEDLVEEVGR [I19N] is lower in abundance fitness: -0.855 ± 0.031 for the first, -1.03 ± 0.069 for the second.

First: RRRVRAILPYTKVPDTDECSFLKGDMFIVHNELEDGWMWVTNLRTDEQGLIVEDLVEEVGR [I19C]
Second: RRRVRAILPYTKVPDTDEYSFLKGDMFIVHNELEDGWMWVTNLRTDEQGLIVEDLVEEVGR [I19Y]
The abundance fitness of the first is higher: -0.451 ± 0.028 for the first, -0.86 ± 0.043 for the second.

RRRVRAILPYTKVPDTDERSFLKGDMFIVHNELEDGWMWVTNLRTDEQGLIVEDLVEEVGR [I19R] and RRRVRAILPYTKVPDTDEDSFLKGDMFIVHNELEDGWMWVTNLRTDEQGLIVEDLVEEVGR [I19D] are within error of each other in abundance fitness: -0.833 ± 0.05 for the first, -0.941 ± 0.063 for the second.

RRRVRAILPYTKVPDTDEESFLKGDMFIVHNELEDGWMWVTNLRTDEQGLIVEDLVEEVGR [I19E] and RRRVRAILPYTKVPDTDEPSFLKGDMFIVHNELEDGWMWVTNLRTDEQGLIVEDLVEEVGR [I19P] are within error of each other in abundance fitness: -0.881 ± 0.14 for the first, -0.989 ± 0.11 for the second.

Going from RRRVRAILPYTKVPDTDESSFLKGDMFIVHNELEDGWMWVTNLRTDEQGLIVEDLVEEVGR [I19S] to RRRVRAILPYTKVPDTDEQSFLKGDMFIVHNELEDGWMWVTNLRTDEQGLIVEDLVEEVGR [I19Q], the abundance fitness falls from -0.878 ± 0.042 to -1.16 ± 0.23.

RRRVRAILPYTKVPDTDEASFLKGDMFIVHNELEDGWMWVTNLRTDEQGLIVEDLVEEVGR [I19A] and RRRVRAILPYTKVPDTDEKSFLKGDMFIVHNELEDGWMWVTNLRTDEQGLIVEDLVEEVGR [I19K] are within error of each other in abundance fitness: -1.14 ± 0.12 for the first, -0.934 ± 0.13 for the second.

Going from RRRVRAILPYTKVPDTDELSFLKGDMFIVHNELEDGWMWVTNLRTDEQGLIVEDLVEEVGR [I19L] to RRRVRAILPYTKVPDTDEWSFLKGDMFIVHNELEDGWMWVTNLRTDEQGLIVEDLVEEVGR [I19W], the abundance fitness falls from -0.004 ± 0.03 to -1.04 ± 0.12.

Compared with RRRVRAILPYTKVPDTDEMSFLKGDMFIVHNELEDGWMWVTNLRTDEQGLIVEDLVEEVGR [I19M], RRRVRAILPYTKVPDTDEFSFLKGDMFIVHNELEDGWMWVTNLRTDEQGLIVEDLVEEVGR [I19F] is lower in abundance fitness: -0.316 ± 0.048 for the first, -0.943 ± 0.061 for the second.

Compared with RRRVRAILPYTKVPDTDVISFLKGDMFIVHNELEDGWMWVTNLRTDEQGLIVEDLVEEVGR [E18V], RRRVRAILPYTKVPDTDTISFLKGDMFIVHNELEDGWMWVTNLRTDEQGLIVEDLVEEVGR [E18T] is higher in abundance fitness: -0.369 ± 0.029 for the first, -0.222 ± 0.038 for the second.

Going from RRRVRAILPYTKVPDTDPISFLKGDMFIVHNELEDGWMWVTNLRTDEQGLIVEDLVEEVGR [E18P] to RRRVRAILPYTKVPDTDYISFLKGDMFIVHNELEDGWMWVTNLRTDEQGLIVEDLVEEVGR [E18Y], the abundance fitness rises from -1.04 ± 0.12 to -0.513 ± 0.037.

Going from RRRVRAILPYTKVPDTDNISFLKGDMFIVHNELEDGWMWVTNLRTDEQGLIVEDLVEEVGR [E18N] to RRRVRAILPYTKVPDTDKISFLKGDMFIVHNELEDGWMWVTNLRTDEQGLIVEDLVEEVGR [E18K], the abundance fitness rises from -0.809 ± 0.051 to -0.457 ± 0.11.

RRRVRAILPYTKVPDTDHISFLKGDMFIVHNELEDGWMWVTNLRTDEQGLIVEDLVEEVGR [E18H] showed an abundance fitness of -0.452 ± 0.041.

— the Human Domainome abundance scans (Beltran et al. 2025)
